Source: patent publication US20180010140A1 (WASHINGTON STATE UNIVERSITY, published 2018)

T1: BPM4 (At3 g03740), yeast two-hybrid construct (Arabidopsis thaliana, UniProt Q9SRV1 1-465, limits assumed)
T1 construct: Yeast two-hybrid fusion
T1 sequence (looked up): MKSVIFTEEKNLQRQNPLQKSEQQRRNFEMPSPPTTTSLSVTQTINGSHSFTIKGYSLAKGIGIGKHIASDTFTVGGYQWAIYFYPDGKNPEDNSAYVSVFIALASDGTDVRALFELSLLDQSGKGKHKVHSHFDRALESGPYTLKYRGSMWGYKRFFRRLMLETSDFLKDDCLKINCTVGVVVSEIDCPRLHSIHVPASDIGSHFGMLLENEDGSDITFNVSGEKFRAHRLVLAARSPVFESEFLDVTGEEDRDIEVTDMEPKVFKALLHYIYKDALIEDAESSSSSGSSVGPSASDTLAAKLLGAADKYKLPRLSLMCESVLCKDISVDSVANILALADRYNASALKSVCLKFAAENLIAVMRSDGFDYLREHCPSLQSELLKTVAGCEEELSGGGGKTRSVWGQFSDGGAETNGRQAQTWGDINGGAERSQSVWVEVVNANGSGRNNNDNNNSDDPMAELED

B1: WRI1 (At3 g54320), yeast two-hybrid construct (other, Arabidopsis thaliana, UniProt Q6X5Y6 1-430, looked up)
chain: MKKRLTTSTCSSSPSSSVSSSTTTSSPIQSEAPRPKRAKRAKKSSPSGDKSHNPTSPASTRRSSIYRGVTRHRWTGRFEAHLWDKSSWNSIQNKKGKQVYLGAYDSEEAAAHTYDLAALKYWGPDTILNFPAETYTKELEEMQRVTKEEYLASLRRQSSGFSRGVSKYRGVARHHHNGRWEARIGRVFGNKYLYLGTYNTQEEAAAAYDMAAIEYRGANAVTNFDISNYIDRLKKKGVFPFPVNQANHQEGILVEAKQEVETREAKEEPREEVKQQYVEEPPQEEEEKEEEKAEQQEAEIVGYSEEAAVVNCCIDSSTIMEMDRCGDNNELAWNFCMMDTGFSPFLTDQNLANENPIEYPELFNELAFEDNIDFMFDDGKHECLNLENLDCCVVGRESPPSSSSPLSCLSTDSASSTTTTTTSVSCNYLV
notes: Yeast two-hybrid fusion (bait pBTM116-D9 against BPM1 as prey; both bait and prey in the self-assembly test); also called WRINKLED1
B2: BPM1 (At5 g19000), yeast two-hybrid construct (other, Arabidopsis thaliana, UniProt Q8L765 1-407, looked up)
chain: MGTTRVCSEVSSGSSKSLSQSLTVSTSTTETVNGFHEFKICGYSLAKGVGVGKYVASDTFMVGGYSWAIYFYPDGKSPEDNSSYVSLFIALASEGADVRALFELTLVDQSGNGKHKVHSHFGRALDSGPYTLKYRGSMWGYKRFFRRSSLESSDYLKENSLLVRCRVGVVKSVTEGPRYYNIPVPVSNLGQQLGNLLESGKGCDVVFQVDGETFNAHKLVLATRSPVFNAQLFGPLGDRNTKCITIEDMEAPIFKVLLHFIYWDELPDMQELIGTDSTLASTLVAQHLLAAADRYALERLKAICESKLCEGVAINTVATTLALAEQHHCLQLKAVCLKFVALPENLKAVMQTDGFDYLKESCPSLLTELLQYVARLSEHSVIVSGHRKEIFADGCDASGRRVKPRLH
notes: also called BTB/POZ-MATH protein 1
B3: BPM5 (At5 g21010), yeast two-hybrid construct (other, Arabidopsis thaliana, UniProt Q1EBV6 1-410, looked up)
chain: MSESVIQGSNPDRVLSPTSSKSVTQTVNGSHQFVIQGYSLAKGMGIGKHIASDNFSVGGYQWGIFFYPDGKNPEDNSSYVSVFIALASEGTEVRALFELALVDQSGKGKHKVHSHFERSLDGGPYTLKYRGSMWGYKRFFRRSILETSDYLKDDCLIINCTVGVVVSEILCPQLHSVHVPDSELGSHFGVLLDSMEGSDITFNIAGEKFLAHKLVLAARSPFFKSKFFSEFEANNTEVTINDLEPKVFKALLQFMYKDSLPEDVEPATAHTFERLKLSEIYETLIVKVLAAADKYDLIRLRLLCESHICKGVSVKSVAKILALADRYNAKELKGVCLKFTAENLAAVLETDAYQQMKDECVTLQSELLKAVAGHEEGSNSTGGAKSQSVWAQLSDGGGDTTSRHVRQRTT
notes: Yeast two-hybrid fusion
B4: BPM3 (At2 g39760), yeast two-hybrid construct (other)
chain: MSTVGGIEQLIPDSVSTSFIETVNGSHQFTIQGYSLAKGMSPGKFIQSDIFSVGGYDWAIYFYPDGKNPEDQSSYISLFIALASDSNDIRALFELTLMDQSGKGKHKVHSHFDRALEGGPYTLKYKGSMWGYKRFFKRSALETSDYLKDDCLVINCTVGVVRARLEGPKQYGIVLPLSNMGQGLKDLLDSEVGCDIAFQVGDETYKAHKLILAARSPVFRAQFFGPIGNNNVDRIVIDDIEPSIFKAMLSFIYTDVLPNVHEITGSTSASSFTNMIQHLLAAADLYDLARLKILCEVLLCEKLDVDNVATTLALAEQHQFLQLKAFCLEFVASPANLGAVMKSEGFKHLKQSCPTLLSELLNTVAAADKSSTSGQSNKKRSASSVLGCDTTNVRQLRRRTRKEVRAVS
notes: Yeast two-hybrid fusion (pACT2 or pBTM116-D9)

Columns and labels:
Experiment in all cases: yeast two-hybrid
[1] = target: T1, BPM4 (At3 g03740), yeast two-hybrid …
Description: (§1) If not otherwise stated in this and subsequent FIGS. 30 μg of total protein extract were loaded as input, and experiments were done with 14-days old seedlings.
(§2) SDII selection medium supplemented with uracil and His was used as a transformation control, while for interaction studies, SDIV minimal medium was chosen without uracil and His supplements. Photos were taken from single spots 7 days after plating. […] Extraction and washing buffers contained at all times 1 mM PMSF (Sigma-Aldrich) and 10 μM MG132 (Sigma-Aldrich) to prevent proteolytic and proteasomal activities, respectively. […] In general, proteins were incubated at least 1.5 h at 4° C. under shaking conditions before being centrifuged.

yeast two-hybrid = target: the molecule itself
Description: as §1, §2

[2] = target: B1
Description: as §1, §2

Row | Binder | binding result [1] | binding result (yeast two-hybrid) | binding result [2]
1 | B1 | binds | binds | –
2 | B2 | – | – | binds
3 | B3 | – | – | binds
4 | B4 | – | – | binds
